Laboratory results: IntAct's records for PubMed 17525332

B1: Origin recognition complex subunit 3 (Homo sapiens), Q9UBD5 (parent)
chain: MATSSMSKGCFVFKPNSKKRKISLPIEDYFNKGKNEPEDSKLRFETYQLIWQQMKSENERLQEELNKNLFDNLIEFLQKSHSGFQKNSRDLGGQIKLREIPTAALVLGVNVTDHDLTFGSLTEALQNNVTPYVVSLQAKDCPDMKHFLQKLISQLMDCCVDIKSKEEESVHVTQRKTHYSMDSLSSWYMTVTQKTDPKMLSKKRTTSSQWQSPPVVVILKDMESFATKVLQDFIIISSQHLHEFPLILIFGIATSPIIIHRLLPHAVSSLLCIELFQSLSCKEHLTTVLDKLLLTTQFPFKINEKVLQVLTNIFLYHDFSVQNFIKGLQLSLLEHFYSQPLSVLCCNLPEAKRRINFLSNNQCENIRRLPSFRRYVEKQASEKQVALLTNERYLKEETQLLLENLHVYHMNYFLVLRCLHKFTSSLPKYPLGRQIRELYCTCLEKNIWDSEEYASVLQLLRMLAKDELMTILEKCFKVFKSYCENHLGSTAKRIEEFLAQFQSLDETKEEEDASGSQPKGLQKTDLYHLQKSLLEMKELRRSKKQTKFEVLRENVVNFIDCLVREYLLPPETQPLHEVVYFSAAHALREHLNAAPRIALHTALNNPYYYLKNEALKSEEGCIPNIAPDICIAYKLHLECSRLINLVDWSEAFATVVTAAEKMDANSATSEEMNEIIHARFIRAVSELELLGFIKPTKQKTDHVARLTWGGC
B2: Zinc finger CCHC domain-containing protein 8 (Homo sapiens), Q6NZY4 (parent)
chain: MAAEVYFGDLELFEPFDHPEESIPKPVHTRFKDDDGDEEDENGVGDAELRERLRQCEETIEQLRAENQELKRKLNILTRPSGILVNDTKLDGPILQILFMNNAISKQYHQEIEEFVSNLVKRFEEQQKNDVEKTSFNLLPQPSSIVLEEDHKVEESCAIKNNKEAFSVVGSVLYFTNFCLDKLGQPLLNENPQLSEGWEIPKYHQVFSHIVSLEGQEIQVKAKRPKPHCFNCGSEEHQMKDCPMPRNAARISEKRKEYMDACGEANNQNFQQRYHAEEVEERFGRFKPGVISEELQDALGVTDKSLPPFIYRMRQLGYPPGWLKEAELENSGLALYDGKDGTDGETEVGEIQQNKSVTYDLSKLVNYPGFNISTPRGIPDEWRIFGSIPMQACQQKDVFANYLTSNFQAPGVKSGNKRSSSHSSPGSPKKQKNESNSAGSPADMELDSDMEVPHGSQSSESFQFQPPLPPDTPPLPRGTPPPVFTPPLPKGTPPLTPSDSPQTRTASGAVDEDALTLEELEEQQRRIWAALEQAESVNSDSDVPVDTPLTGNSVASSPCPNELDLPVPEGKTSEKQTLDEPEVPEIFTKKSEAGHASSPDSEVTSLCQKEKAELAPVNTEGALLDNGSVVPNCDISNGGSQKLFPADTSPSTATKIHSPIPDMSKFATGITPFEFENMAESTGMYLRIRSLLKNSPRNQQKNKKASE
B3: DNA replication complex GINS protein PSF2 (Homo sapiens), Q9Y248 (parent)
chain: MDAAEVEFLAEKELVTIIPNFSLDKIYLIGGDLGPFNPGLPVEVPLWLAINLKQRQKCRLLPPEWMDVEKLEKMRDHERKEETFTPMPSPYYMELTKLLLNHASDNIPKADEIRTLVKDMWDTRIAKLRVSADSFVRQQEAHAKLDNLTLMEINTSGTFLTQALNHMYKLRTNLQPLESTQSQDF

Variants of: B1
Conditions: with brca1_human BRCA1, P38398
Target sequence in this assay (P38398 whole entry, looked up): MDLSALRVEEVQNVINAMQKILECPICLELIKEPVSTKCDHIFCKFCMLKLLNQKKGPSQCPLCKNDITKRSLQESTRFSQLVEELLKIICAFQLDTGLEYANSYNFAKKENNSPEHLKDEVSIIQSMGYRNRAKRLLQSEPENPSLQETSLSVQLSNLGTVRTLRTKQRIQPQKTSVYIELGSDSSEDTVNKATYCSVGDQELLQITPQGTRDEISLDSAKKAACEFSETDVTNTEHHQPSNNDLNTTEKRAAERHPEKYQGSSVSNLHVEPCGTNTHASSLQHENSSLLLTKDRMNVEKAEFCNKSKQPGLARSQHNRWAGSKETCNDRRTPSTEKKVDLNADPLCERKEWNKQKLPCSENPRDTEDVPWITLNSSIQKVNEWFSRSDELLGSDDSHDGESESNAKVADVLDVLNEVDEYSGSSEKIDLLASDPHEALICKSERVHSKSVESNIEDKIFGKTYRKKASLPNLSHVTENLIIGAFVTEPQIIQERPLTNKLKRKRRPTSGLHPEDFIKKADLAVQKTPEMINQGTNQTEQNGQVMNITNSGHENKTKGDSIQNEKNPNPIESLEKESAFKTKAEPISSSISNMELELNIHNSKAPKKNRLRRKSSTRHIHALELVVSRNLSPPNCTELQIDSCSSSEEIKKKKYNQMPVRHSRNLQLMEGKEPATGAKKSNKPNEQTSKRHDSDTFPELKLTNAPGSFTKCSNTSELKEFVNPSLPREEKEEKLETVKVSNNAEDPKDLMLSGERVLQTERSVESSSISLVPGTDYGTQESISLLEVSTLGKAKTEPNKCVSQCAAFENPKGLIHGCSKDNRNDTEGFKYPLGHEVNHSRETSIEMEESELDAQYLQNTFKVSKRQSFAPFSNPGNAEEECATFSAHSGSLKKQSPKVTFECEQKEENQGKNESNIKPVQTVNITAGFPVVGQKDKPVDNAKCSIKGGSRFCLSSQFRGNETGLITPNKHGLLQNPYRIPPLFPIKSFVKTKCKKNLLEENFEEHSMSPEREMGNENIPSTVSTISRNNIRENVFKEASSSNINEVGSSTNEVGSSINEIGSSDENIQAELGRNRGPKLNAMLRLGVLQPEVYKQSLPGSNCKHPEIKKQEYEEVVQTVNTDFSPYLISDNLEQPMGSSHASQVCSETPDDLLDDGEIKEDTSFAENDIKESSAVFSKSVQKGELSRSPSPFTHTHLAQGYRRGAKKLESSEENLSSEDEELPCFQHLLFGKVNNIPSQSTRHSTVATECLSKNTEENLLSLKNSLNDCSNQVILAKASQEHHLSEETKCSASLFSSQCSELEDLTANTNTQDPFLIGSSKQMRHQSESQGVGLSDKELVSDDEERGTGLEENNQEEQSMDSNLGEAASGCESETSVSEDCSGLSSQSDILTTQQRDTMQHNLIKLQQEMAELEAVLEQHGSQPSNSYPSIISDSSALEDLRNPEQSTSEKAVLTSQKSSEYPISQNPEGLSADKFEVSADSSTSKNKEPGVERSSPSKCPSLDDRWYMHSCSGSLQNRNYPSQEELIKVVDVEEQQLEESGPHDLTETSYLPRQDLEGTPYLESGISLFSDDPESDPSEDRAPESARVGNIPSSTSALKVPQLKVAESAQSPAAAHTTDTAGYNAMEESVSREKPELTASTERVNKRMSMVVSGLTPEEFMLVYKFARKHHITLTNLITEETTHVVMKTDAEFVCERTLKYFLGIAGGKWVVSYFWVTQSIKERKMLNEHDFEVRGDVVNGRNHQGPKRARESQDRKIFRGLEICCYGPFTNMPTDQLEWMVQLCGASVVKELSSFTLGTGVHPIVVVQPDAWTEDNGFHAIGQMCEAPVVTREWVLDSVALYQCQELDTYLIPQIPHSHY

| effect of a mutation on the interaction | Variant |
| --- | --- |
| disrupting interaction | S516A |

Variants of: B2
Conditions: with brca1_human BRCA1, P38398
Target sequence in this assay (P38398 whole entry, looked up): as above

| effect of a mutation on the interaction | Variant |
| --- | --- |
| disrupting interaction | S456A |

Variants of: B3
Conditions: with chk2_human CHEK2, O96017
chk2_human CHEK2, O96017, sequence (O96017 whole entry): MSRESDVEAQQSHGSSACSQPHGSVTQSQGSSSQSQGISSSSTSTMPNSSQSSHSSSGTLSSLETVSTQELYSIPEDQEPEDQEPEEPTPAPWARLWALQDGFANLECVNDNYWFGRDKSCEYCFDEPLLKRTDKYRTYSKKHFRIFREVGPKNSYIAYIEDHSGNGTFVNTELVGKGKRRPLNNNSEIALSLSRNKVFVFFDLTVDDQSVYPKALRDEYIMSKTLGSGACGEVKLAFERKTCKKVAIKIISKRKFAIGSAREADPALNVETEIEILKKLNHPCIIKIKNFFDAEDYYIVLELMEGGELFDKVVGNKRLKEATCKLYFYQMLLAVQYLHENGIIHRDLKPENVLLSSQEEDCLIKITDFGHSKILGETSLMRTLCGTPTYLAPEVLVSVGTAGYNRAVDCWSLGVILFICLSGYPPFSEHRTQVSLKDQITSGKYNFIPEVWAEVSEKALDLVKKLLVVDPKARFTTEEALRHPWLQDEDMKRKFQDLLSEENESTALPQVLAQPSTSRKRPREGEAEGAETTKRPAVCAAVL

| effect of a mutation on the interaction | Variant |
| --- | --- |
| disrupting interaction | T180A;S182A |
